Data: patent publication US20250179160A1 (OMEROS, published 2025)
Residue numbers refer to the chain shown, from its start. Names and notes keep the numbering of the source. Values belong to the binder of their own block, whether it stands above or below them.

What was measured:
[1] = target: T1, recombinant human Pro-Factor D (human, UniProt P00746 20-253); test: ELISA: antibody titrated 3-fold from 3 ug/ml on plate coated with 1 ug/ml recombinant human pro-Factor D; HRP anti-mouse, rat or human secondary; OD450
T1 construct: also used for the endogenous pro-Factor D detected in 3MC patient serum; also called pro CFD; hPro-CFD

[2] = target: T2, recombinant human mature Factor D (human, UniProt P00746 26-253); test: ELISA: antibody titrated 3-fold from 3 ug/ml on plate coated with 1 ug/ml recombinant human mature Factor D; HRP anti-mouse, rat or human secondary; OD450
T2 construct: also called mature CFD; hCFD

[3] = target: T2, recombinant human mature Factor D; test: capture ELISA: recombinant Factor D captured by plate-bound goat polyclonal AF1824; hybridoma supernatant diluted two-fold; HRP goat anti-mouse IgG Fc; OD450
Description: The specificity of anti-human pro-CFD hybridomas were further analyzed as follows. […] ELISA plates were coated with polyclonal anti-human factor D antibody AF1824 (R&D Systems). Hybridoma supernatants were diluted two-fold in PBS, 0.05% Tween 20 (PBST). […] Hybridoma supernatants and control samples were allowed to bind to captured pro or mature Factor D for one hour at room temperature. After washing three times with PBST, 100 μL/well of HRP-goat anti-mouse IgG Fc gamma secondary antibody (Jackson ImmunoResearch) diluted in PBST was added and incubated for 1 hour at room temperature. After washing three times with PBST, TMB substrate (ThermoFisher), 100 μL/well, was added. After 4 minutes the reaction was stopped with 50 μL/well of 1N H2SO₄, then read at 450 nm on a Biotek™ ELISA plate reader.

[4] = target: T1, recombinant human Pro-Factor D; test: capture ELISA: recombinant Factor D captured by plate-bound goat polyclonal AF1824; hybridoma supernatant diluted two-fold; OD450
Description: Hybridoma supernatants were first screened for binding to immobilized recombinant human mature Factor D-His. […] ELISA plates were coated with polyclonal anti-human factor D antibody AF1824 (R&D Systems). Hybridoma supernatants were diluted two-fold in PBS, 0.05% Tween 20 (PBST). Supernatant from NS-1 myeloma cell line (NS-1 sup) was included as a matrix control to determine the level of assay background.

[5] = target: T1, recombinant human Pro-Factor D; test: sandwich ELISA: Factor D titrated (ug/ml Df) on plate-bound goat polyclonal AF1824; purified recombinant human IgG4 antibody as detection antibody; OD450
Excerpt: An HRP-tagged anti-mouse secondary antibody followed by TMB substrate was used to develop the assay.

[6] = target: T2, recombinant human mature Factor D; test: BLI (Octet ForteBio), 20 nM human IgG4 antibody on anti-human sensors, antigen 111 nM
Description: Affinities of candidate antibodies to human mature-Factor-D versus human pro-Factor D were determined as follows.
Association and dissociation constants were determined by Octet Fortebio.

[7] = target: T3, recombinant human mature Factor D, Strep tagged (human, UniProt P00746 26-253); test: ELISA with hybridoma supernatant on immobilized antigen
T3 construct: also called recombinant human mature CFD-Strep tagged; recombinant human mature Factor D-Streptavidin; not shown: Strep tag

B1: 13A10, purified recombinant, human IgG4 (antibody, V domains shown)
VH: DVQLQESGPGLVKPSQSLSLTCTVTGYSITSDYAWNWIRQFPGNKLEWMGYISYIGGIGYNPSLKSRISITRDTSKNQFFLHLNSVTTGDTATYYCARNGAMDFWGQGISVTVSS
VL: DIVLTQSPASLAVSLGQRATISCKASQSVDYDGDSYMNWYQQKPGQPPKLLIYDASNLESGIPARFSGSGSGTDFTLNIHPVEEEDAATYYCQQSNEAPWTFGGGTKLEIKR
notes: Mouse variable regions on human IgG4 (S228P) and human kappa constant regions
EC50 (read off the curve) [1]: ~0.02 µg/mL | binding result [2]: no binding (tested: 3 ug/ml)

B2: 13A10, hybridoma supernatant (antibody, V domains shown)
VH: B1 VH
VL: B1 VL
notes: Mouse hybridoma antibody
binding result [3]: no binding

B3: 21H1, hybridoma supernatant (antibody, V domains shown)
VH: B1 VH with I55S, G57S, I58T, N61S, F104Y
VL: B1 VL with N57T, S95N, N96Y
notes: Mouse hybridoma antibody
binding result [3]: no binding

B4: 18F5, purified recombinant, human IgG4 (antibody, V domains shown)
VH: EVKLEESGGGLVQPGGSMKLSCVASGFTFGNYWMSWVRQSPEKGLEWVAEIRLKSDNYATHYAESVKGKFTISRDDSKSRLYLQMNSLRGEDTGLYYCTNAWFASWGQGTLVTVSA
VL: DIVMSQSPSSLAVSVGEKVTMSCMSSQSLLYSKDQKNYLAWYQQKPGQSPKLLIYWASTRESGVPDRFTGSGSGTDFTLTISSVKAEDLAVYYCLQYYTYPYTFGGGTKLEIKR
notes: as for B1
EC50 (read off the curve) [1]: ~0.03 µg/mL | binding result [2]: no binding (tested: 3 ug/ml)

B5: 18F5, hybridoma supernatant (antibody, V domains shown)
VH: B4 VH
VL: B4 VL
notes: Mouse hybridoma antibody
binding result [3]: no binding

B7: 20A1, hybridoma supernatant (antibody, V domains shown)
VH: B4 VH with V23I, G30S, N31T, D56E, H61Y, T71I, G90A, L95I, S105N
VL: B4 VL with A12V, M24K, S28N, K33R, K51N, T78S, T99S, I112M
notes: Mouse hybridoma antibody
binding result [3]: no binding

B8: 2A4, hybridoma supernatant (antibody, V domains shown)
VH: B4 VH with G30S, N31T, A63T, G90V, L95I, S105Y
VL: B4 VL with V19F, M24K, K33R, K45Q, A86T, T99S
notes: Mouse hybridoma antibody
binding result [3]: no binding

B9: 2A4, purified recombinant, human IgG4 (antibody, V domains shown)
VH: B4 VH with G30S, N31T, A63T, G90V, L95I, S105Y
VL: B4 VL with V19F, M24K, K33R, K45Q, A86T, T99S
notes: as for B1
EC50 (read off the curve) [1]: ~0.03 µg/mL | binding result [2]: no binding (tested: 3 ug/ml)

B10: 1F9, hybridoma supernatant (antibody, V domains shown)
VH: B4 VH with N31S, T60A, L95I
VL: B4 VL with A12T, K51T
notes: Mouse hybridoma antibody
binding result [3]: no binding

B13: 6G6, purified recombinant, human IgG4 (antibody, V domains shown)
VH: QITLKESGPGILQSSQTLSLTCSFSGISLTTSGMGVSWIRQPSGKGLEWLAHIYWDDEKHYHPSLKSRLTISKDASRNQVFFRILSVDTADTATYYCALRYYGYRSFMDYWGQGTSVTVSS
VL: DVLMTQSPLSLPVSLGDQASIFCRSNQSIVHSNGNTYFEWYLQKPGQSPKLLIYKVSNRFSGVPDRFSGSGSGTDFTLRISRVEAEDLGVYYCFQGSHVPPTFGGGTKLEIKR
notes: as for B1
binding result [5]: no binding | Kd [6]: 14.3 nM

B14: 49G3, hybridoma supernatant (antibody, V domains shown)
VH: QVTLKESGPGILQSSQTLSLTCSFSGISLSSSGMGVSWIRQPSGKGLEWLAHIYWDDEKHYNPSLKSRLTISKDASRNQIFLKIISVDTADTATYYCALRYYGYNYVMHYWGQGTSVTVSS
VL: B13 VL with S7T, F22S, N26S, V30L, R79K
notes: Mouse hybridoma antibody
binding result [4]: no binding

B15: 49G3, purified recombinant, human IgG4 (antibody, V domains shown)
VH: B14 VH
VL: B13 VL with S7T, F22S, N26S, V30L, R79K
notes: as for B1
binding result [5]: no binding | Kd [6]: 2.3 nM

B18: 11H1, hybridoma supernatant (antibody, V domains shown)
VH: EVQLVESGGGLVQPKGSLKLSCAASGFSFNTYAMNWVRQAPGKGLEWVARIRSKSNNYATHYADSVKDRFTISRDDSESMLYLQMNNLKTEDTAMYYCVRQGYYWYFDVWGTGTTVTVSS
VL: B13 VL with S7T, F22S, N26S, F38L, K55T, R79K, P101W
notes: Mouse hybridoma antibody
binding result [7]: binds

B21: 7H2, hybridoma supernatant (antibody, V domains shown)
VH: B18 VH with L4V, Q13R, H61Y, Y82S
VL: B13 VL with S7T, F22S, N26S, F38L, K55T, S68R, R79K, P101W
notes: Mouse hybridoma antibody
binding result [7]: binds

Further lines, results first:

binding result [2]: no binding (tested: 3 ug/ml)
B6: 20A1, purified recombinant, human IgG4 (antibody, V domains shown)
VH: B4 VH with V23I, G30S, N31T, D56E, H61Y, T71I, G90A, L95I, S105N
VL: B4 VL with A12V, M24K, S28N, K33R, K51N, T78S, T99S, I112M
notes: as for B1

binding result [2]: no binding (tested: 3 ug/ml)
B11: 1F9, purified recombinant, human IgG4 (antibody, V domains shown)
VH: B4 VH with N31S, T60A, L95I
VL: B4 VL with A12T, K51T
notes: as for B1

binding result [4]: no binding
B12: 6G6, hybridoma supernatant (antibody, V domains shown)
VH: B13 VH
VL: B13 VL
notes: Mouse hybridoma antibody

binding result [4]: no binding
B16: 27B3, hybridoma supernatant (antibody, V domains shown)
VH: B13 VH with I2V, T30N, T31I, H62N, S67R, L85S, T89S, R105G, F107I, Q113H
VL: B13 VL with S7T, F22S, N26S, R79K
notes: Mouse hybridoma antibody

binding result [5]: no binding | Kd [6]: 24.1 nM
B17: 27B3, purified recombinant, human IgG4 (antibody, V domains shown)
VH: B13 VH with I2V, T30N, T31I, H62N, S67R, L85S, T89S, R105G, F107I, Q113H
VL: B13 VL with S7T, F22S, N26S, R79K
notes: as for B1

binding result [5]: no binding | Kd [6]: < 0.001 nM
B19: 58F5, purified recombinant, human IgG4 (antibody, V domains shown)
VH: B14 VH with S30N, S31T, G33I, I80V
VL: B13 VL with S7T, F22S, N26S, F38L, R79K, E86D
notes: as for B1

binding result [4]: no binding
B20: 58F5, hybridoma supernatant (antibody, V domains shown)
VH: B14 VH with S30N, S31T, G33I, I80V
VL: B13 VL with S7T, F22S, N26S, F38L, R79K, E86D
notes: Mouse hybridoma antibody; also called 58GF5

binding result [4]: no binding
B22: 10G1, hybridoma supernatant (antibody, V domains shown)
VH: B14 VH with I27V, D74G, I80V, Y106S, V107I, T115A
VL: B13 VL with S7T, F22S, N26S, Q27E, F38L, S57Y, R79K
notes: Mouse hybridoma antibody

binding result [5]: no binding | Kd [6]: 9.77 nM
B23: 14A11, purified recombinant, human IgG4 (antibody)
heavy: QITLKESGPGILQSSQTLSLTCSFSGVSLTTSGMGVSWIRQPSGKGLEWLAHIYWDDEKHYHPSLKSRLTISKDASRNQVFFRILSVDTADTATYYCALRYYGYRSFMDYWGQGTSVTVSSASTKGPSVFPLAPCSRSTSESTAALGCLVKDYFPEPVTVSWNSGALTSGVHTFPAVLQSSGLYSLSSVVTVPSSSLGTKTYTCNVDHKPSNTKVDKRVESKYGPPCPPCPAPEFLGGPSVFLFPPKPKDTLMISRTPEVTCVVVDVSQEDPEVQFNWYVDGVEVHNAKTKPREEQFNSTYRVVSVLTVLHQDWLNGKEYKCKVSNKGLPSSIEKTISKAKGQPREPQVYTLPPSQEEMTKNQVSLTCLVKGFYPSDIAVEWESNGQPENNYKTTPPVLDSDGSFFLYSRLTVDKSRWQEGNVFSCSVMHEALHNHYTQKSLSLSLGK
light: DVLMTQSPLSLPVSLGDQASIFCRSNQSIVHSNGNTYFEWYLQKPGQSPKLLIYKVSNRFSGVPDRFSGSGSGTDFTLRISRVEAEDLGIYYCFQGSHVPPTFGGGTKLEIKRTVAAPSVFIFPPSDEQLKSGTASVVCLLNNFYPREAKVQWKVDNALQSGNSQESVTEQDSKDSTYSLSSTLTLSKADYEKHKVYACEVTHQGLSSPVTKSFNRGEC
notes: as for B1

binding result [5]: no binding | Kd [6]: 0.731 nM
B24: 10G1, purified recombinant, human IgG4 (antibody, V domains shown)
VH: B14 VH with I27V, D74G, I80V, Y106S, V107I, T115A
VL: B13 VL with S7T, F22S, N26S, Q27E, F38L, S57Y, R79K
notes: as for B1
